Here are results for 9 sequences from the supplement of paper PMC9170038.

The data set deals with MS2 coat protein. As to the kind of experiment: apparent KD of MS2 coat protein; higher = weaker reporter binding. As to conditions: Eterna round: R107. An outline of the steps:
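SNAP-549-labelled MS2 coat protein was titrated onto designed RNA switches that had been transcribed on-chip from Illumina sequencing clusters. Amounts doubled from 0.7 or 1.5 nM to 3 µM in 100 mM Tris-HCl pH 7.5, 80 mM KCl, 4 mM MgCl2, with constant ligand or without. Apparent KD is the median per design of normalised cluster binding-curve fits.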

Setting [1] is: input ligand: theophylline 20 uM.
[2] abbreviates: input ligand: theophylline 2 mM.
Setting [3] is: input ligand: tryptophan 2.4 mM.

With “GGACCAGGGAGCGAUACCAGCUUGAGUGUGCUGGCCAGGCACAUGAGGAUCACCCAUGUAGGCCCUUGGCAGCGCUCCCUGGUCC [#1 Exclusion - Theophylline B Attempt #28 (HarryS)]”, the “apparent KD of MS2 coat protein” value (input ligand: arginine 13.2 mM) is 0.00906 µM; the “apparent KD of MS2 coat protein” value (input ligand: none) was determined as 0.00945 µM; the “apparent KD of MS2 coat protein” value under setting [1] turned out to be 0.0165 µM; the “apparent KD of MS2 coat protein” value under setting [2] stood at 0.0123 µM; the “apparent KD of MS2 coat protein” value under setting [3] stood at 0.0141 µM.
Taken in the same sequence, the figures for “GGAGCUACGUCGGCCGCCACUAGCGGGUAUUGCGUGUACAUGAGGAUCACCCAUGUAAUAUGGCCUAGGACCGGGACGUAGCUCC [Bison]” were 0.0133 µM, 0.0167 µM, 0.0224 µM, 0.0169 µM and 0.0165 µM.
Taken in the same sequence, the figures for “GGAUAGGACACGGCCGCCACUAGCUAGGAUACUAGCAACAUUUCCUCACUUGAGGAUCACCCAGGUAGGACCGGGUGUCCUAUCG” were 0.143 µM, 0.58 µM, 0.577 µM, 1.43 µM and 0.62 µM.
Taken in the same sequence, the figures for “GGAUAGGACACGGCCGCCACUAGCUAGGAUACUAGCAACAUUUCCUCAGAUGAGGAUCACCCAUCUAGGACCGGGUGUCCUAUCG” were 0.0257 µM, 0.026 µM, 0.0365 µM, 0.0336 µM and 0.0844 µM.
Consider “GGAUAGGACACGGCCGCCACUGCGGCUAGAUACUAGCACAUUUCCUCACAUGAGGAUCACCCAUGUAGGACCGGGUGUCCUAUCG”, for which the “apparent KD of MS2 coat protein” value runs as follows: (input ligand: arginine 13.2 mM) 0.0576 µM; under setting [1], 0.122 µM; under setting [2], 0.089 µM.
“GGAUAGGACAGAAGGAGCGUGAGAUGCAAAGCAUCAUUCCUCACAUGAGGAUCACCCAUGUCACAGGUAGGUCGCUGUCCUAUCG [ArgBX 4]”: the “apparent KD of MS2 coat protein” value came out at 0.0783 µM (input ligand: arginine 13.2 mM); 0.0951 µM (input ligand: none); 0.119 µM under setting [1]; 0.11 µM under setting [2]; 0.112 µM under setting [3].
In the case of “GGCACACAUGAGGAUCACCCAUGUGGCGAUACCAGUUGAUGGUAAAACCCUUGGCAGCGCCAGUCACAUGCAGAUAGUUACUGAA [theeternabot_sameState_MS2_Theo_A_32]”, the “apparent KD of MS2 coat protein” value reads like this: (input ligand: arginine 13.2 mM) 0.0142 µM; under setting [1], 0.0194 µM; under setting [3], 0.0158 µM.
As to “GGCACAUAGUCGGCCGCCACUAGUGGGAAAUGGGAGAACAUGAGGAUCACCCAUGUAGCGUAGCCUAGGACCGGGACUAUGUGCC [Elephant]”, the “apparent KD of MS2 coat protein” value reads like this: (input ligand: arginine 13.2 mM) 0.0853 µM; under setting [1], 0.172 µM; under setting [2], 0.231 µM.
Regarding “GGCACUCUGUAAGAUACCAGACGUCGGUGCUUACAUGAGGAUCACCCAUGUUGCUUUUUAGUCCCUUGGCAGCUUCGGAUAACCA [Oniste]”, the “apparent KD of MS2 coat protein” value reads like this: (input ligand: arginine 13.2 mM) 0.0886 µM; under setting [1], 0.557 µM; under setting [3], 0.23 µM.
